In article PMC8054679:
Where two headings read alike, the source gives them in different places.

Columns and labels:
Test in all cases: split reporter
SmBiT-CHIP-FLAG = molecular target: SmBiT-CHIP-FLAG
SmBiT-CHIP K30A = molecular target: SmBiT-CHIP K30A
SmBiT-CHIP [1] = molecular target: SmBiT-CHIP
SmBiT-CHIP [2] = molecular target: SmBiT-CHIP; remark: listed apart in the source

Sequence of SmBiT-CHIP (Q9UNE7 whole entry): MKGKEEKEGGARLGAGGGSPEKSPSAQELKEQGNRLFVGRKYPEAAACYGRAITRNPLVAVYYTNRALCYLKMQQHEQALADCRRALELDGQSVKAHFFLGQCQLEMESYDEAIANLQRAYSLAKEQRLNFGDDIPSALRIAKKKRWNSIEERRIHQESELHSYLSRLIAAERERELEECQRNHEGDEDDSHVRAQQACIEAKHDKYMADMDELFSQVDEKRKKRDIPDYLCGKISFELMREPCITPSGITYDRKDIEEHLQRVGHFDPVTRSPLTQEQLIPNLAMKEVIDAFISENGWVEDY
Sequence of SmBiT-CHIP-FLAG (Q9UNE7 whole entry): as above

Row | Binder | luminescence with dox (SmBiT-CHIP-FLAG) [RLU] | fold increase in luminescence over the negative control (SmBiT-CHIP K30A) [fold] | fold increase in luminescence over the negative control (SmBiT-CHIP [1]) [fold] | fold increase in luminescence over the negative control (SmBiT-CHIP [2]) [fold]
1 | GGSGIEEVD [myc-LgBiT-IEEVD] | 47300 | – | – | –
2 | GGSGIEEVD [LgBiT-IEEVD] | – | 97 | 180 | 160 to 180
3 | GGSGLWWPD [LgBiT-LWWPD] | – | – | 300 | –
